B1: Anti-CD117 VHH P27 (monovalent form) (VHH)
VHH: EVQLVESGGGLVRAGGSLRLSCAASGRTTFSTYWLGWFRQAPGKNREFVAAISWSAGMAYYQDSKGRFTISRDNTKNTAYLQMNSLQPEDTAVYYCAAGRFHPIRVDTALYWAQGTQVTVSS
notes: Secreted from Expi293 cells
B2: Anti-CD117 VHH P35 (monovalent form) (VHH)
VHH: QVQLVESGGGLVQAGGSLRLSCAASGGTFSIYPVGWFRQAPGKQREFVAAIGWSASGTYYGDSVEGRFTVSRDNARSTVYLRMSSLKPDDTAVYYCAAASGSNWRLGAIDEYDSWGQGTQVTVSS
notes: Secreted from Expi293 cells
B3: Anti-CD117 VHH P31 (monovalent form) (VHH)
VHH: EVQLVESGGGLVRAGGSLRLSCAASGRTFTYDARAWFRQAPGKEREFVAAISWSGGSTYYPNSMKGRFTISRDNAKNTVYLQMNSLKPEDTAVYYCAADESFPAYYSDYALYRYWGQGTLVTVSS
notes: Secreted from Expi293 cells
B4: Anti-CD117 VHH P38 (monovalent form) (VHH)
VHH: EVQLVESGGGLVQAGGSLRLSCAASGRTSGSYVMGWFRQAPGKEREFVAAISWSAGMTYYADSVKGRFTISRDNAKNTVYLQMNSLKPEDTAVYYCAADQRGVPAYYSDYALYDYWGQGTQVTVSS
B5: Anti-CD117 VHH P29 (monovalent form) (VHH)
VHH: QVHLVESGGGLVQAGGSLGLSCAASGHTFSNYAMGWFRQAPGKEREFVAAISWSGGSTLYADSVKGRFTISRDNGENTVYLQMNSLKPEDTAVYYCALDSTGVYGTGYVSSRKGRYEYWGQGTLVTVSS
notes: Secreted from Expi293 cells
B6: Anti-CD117 VHH P10 (monovalent form) (VHH)
VHH: QVQLVESGGGLVQAGGSLRLSCVASGRTFSSYAMGWFRQGPGKEREFAAAILSNGLTTYYADSVKGRFTISRDNAKDTVYLQMNSLKPEDTANYYCAAAFTPEFRDGGIWDDASVDYWGQGTQVTVSS
notes: Secreted from Expi293 cells
B7: Anti-CD117 VHH P12 (monovalent form) (VHH)
VHH: QVQLVESGGGLVQAGGSLRLSCTASGDTFSSYSMGWFRQGPGKEREFVGGIRWSGGTTYYADSVKGRFTISRDNAKNTVYLQMNSLKREDTAVYYCAAVRRRWLIWQEEEYDYWGQGTLVTVSS
notes: Secreted from Expi293 cells

T1 sequence (P10721 26-976 limits assumed): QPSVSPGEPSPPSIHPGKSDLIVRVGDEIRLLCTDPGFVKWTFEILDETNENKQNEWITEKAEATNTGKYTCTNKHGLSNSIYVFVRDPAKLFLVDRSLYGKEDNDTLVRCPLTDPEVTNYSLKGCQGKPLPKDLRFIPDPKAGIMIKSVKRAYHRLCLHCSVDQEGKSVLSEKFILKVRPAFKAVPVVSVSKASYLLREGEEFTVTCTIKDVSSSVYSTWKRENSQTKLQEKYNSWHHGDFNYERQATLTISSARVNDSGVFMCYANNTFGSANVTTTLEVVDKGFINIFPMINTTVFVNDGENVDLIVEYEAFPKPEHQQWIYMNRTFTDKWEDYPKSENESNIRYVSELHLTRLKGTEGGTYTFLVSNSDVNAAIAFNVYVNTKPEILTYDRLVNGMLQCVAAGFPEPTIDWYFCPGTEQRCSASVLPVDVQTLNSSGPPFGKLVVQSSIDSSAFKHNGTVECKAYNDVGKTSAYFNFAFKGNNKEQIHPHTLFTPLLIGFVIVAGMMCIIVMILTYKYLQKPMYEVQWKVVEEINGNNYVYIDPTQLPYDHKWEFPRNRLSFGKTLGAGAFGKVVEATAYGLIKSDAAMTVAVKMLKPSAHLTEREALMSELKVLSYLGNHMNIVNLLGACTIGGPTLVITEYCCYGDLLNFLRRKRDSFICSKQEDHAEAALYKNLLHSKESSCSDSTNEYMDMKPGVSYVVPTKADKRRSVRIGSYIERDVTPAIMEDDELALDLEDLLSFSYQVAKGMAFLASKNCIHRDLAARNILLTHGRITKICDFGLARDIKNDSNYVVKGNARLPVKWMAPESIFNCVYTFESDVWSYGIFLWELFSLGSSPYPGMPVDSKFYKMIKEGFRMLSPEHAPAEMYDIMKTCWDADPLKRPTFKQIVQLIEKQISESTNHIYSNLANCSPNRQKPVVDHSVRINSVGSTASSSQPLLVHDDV

The assay addresses T1, Cell surface CD117 on CD117+ cells (SKMEL / SKMEL-3 cells, CD34+ cells / HSPCs, Kasumi-1 cells) (UniProt P10721 26-976, limits assumed).
T1 construct: whole, on cells; also called cKIT; C-kit
Nature of the assay: flow cytometry on SKMEL cells and CD34 cells (both CD117+).
For the molecule B1, the binding result is listed as “binds”. For the molecule B2, the binding result was “binds”. With B3, the binding result is recorded as “binds”. Turning to B4, the binding result is listed as “binds”. As for B5, the binding result is listed as “binds”. For B6, the binding result is reported as “binds”. The result for B7 reads “binds”.
